The target in this assay is purified folded MHC-complex (Example 29). The assay can be described thus: sandwich ELISA, W6/32 coat, HRP rabbit anti-β2m detection. For orientation: In an ELISA, binding on a coated surface is turned into a signal by an enzyme label.

Regarding “W6/32 mouse-anti-HLA-ABC antibody (Dako M0736)”, the OD450 against the negative control β2m (fold) was more than 6 fold.

The values are drawn from patent publication US10030065.
